Test results: patent EP2014310A2 (Dyax Corporation, dated 2009)
Ends that are not written are not given here.

What follows are binders tested against T1, human KDR-Fc fusion (R&D Systems #357-KD-050) (human, UniProt P35968 20-764) (assay: phage binding screen on KDR-Fc; class legend in paragraph 246).
T1 construct: bought
T1 sequence (P35968 20-764): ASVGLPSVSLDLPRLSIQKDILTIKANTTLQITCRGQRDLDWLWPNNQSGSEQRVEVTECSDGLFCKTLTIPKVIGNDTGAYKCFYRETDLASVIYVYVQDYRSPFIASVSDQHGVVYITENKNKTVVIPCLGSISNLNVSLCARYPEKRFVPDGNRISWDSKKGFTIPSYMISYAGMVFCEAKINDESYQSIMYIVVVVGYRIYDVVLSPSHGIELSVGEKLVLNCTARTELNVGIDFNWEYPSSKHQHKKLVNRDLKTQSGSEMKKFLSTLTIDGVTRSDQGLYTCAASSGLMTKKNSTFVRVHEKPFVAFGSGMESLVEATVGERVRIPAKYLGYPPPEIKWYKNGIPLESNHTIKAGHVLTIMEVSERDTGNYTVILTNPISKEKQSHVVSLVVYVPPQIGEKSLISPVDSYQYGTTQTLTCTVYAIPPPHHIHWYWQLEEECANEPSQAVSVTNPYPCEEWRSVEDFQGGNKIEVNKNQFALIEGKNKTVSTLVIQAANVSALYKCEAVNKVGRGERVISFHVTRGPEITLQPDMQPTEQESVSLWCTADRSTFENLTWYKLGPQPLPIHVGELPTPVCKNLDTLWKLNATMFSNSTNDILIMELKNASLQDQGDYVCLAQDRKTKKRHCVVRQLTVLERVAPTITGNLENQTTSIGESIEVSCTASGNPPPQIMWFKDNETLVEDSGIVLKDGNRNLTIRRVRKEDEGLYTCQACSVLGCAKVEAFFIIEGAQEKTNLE

Binder	binding result
LGYCMYDYENRGWTCYPP (not fully specified; cysteine pairing not given here) [phage isolate LGYCMYDYENRGWTCYPP]	binds
SDLCYNQSGWWELCYFD [phage isolate SDLCYNQSGWWELCYFD]	binds
LDNCIWNVWKGVQDCEYS [phage isolate LDNCIWNVWKGVQDCEYS]	binds
AGWCEYVAPQGAWRCFHN [phage isolate AGWCEYVAPQGAWRCFHN]	binds
YSDCLFQLWKGSVCPPS [phage isolate YSDCLFQLWKGSVCPPS]	binds
PPFCIYQEPSGQWWCYDH [phage isolate PPFCIYQEPSGQWWCYDH]	binds
LSLCYNDMHGWWEHCQWY [phage isolate LSLCYNDMHGWWEHCQWY]	binds
DWACDEYWSAYSVLCKHP [phage isolate DWACDEYWSAYSVLCKHP]	binds
YSHCIETSMENIWFCDFD [phage isolate YSHCIETSMENIWFCDFD]	binds
PGWCDFSPQLGQWMCDWF [phage isolate PGWCDFSPQLGQWMCDWF]	binds
PFWCKFQQSKAMFPCSWF [phage isolate PFWCKFQQSKAMFPCSWF]	binds
YYQCQRYWDGKTWWCEYN [phage isolate YYQCQRYWDGKTWWCEYN]	binds
WDDCIWHMWLKKKDCNSG [phage isolate WDDCIWHMWLKKKDCNSG]	binds
DRWCMLDQEKGWWLCGPP [phage isolate DRWCMLDQEKGWWLCGPP]	binds
NGSCWYDFGWETEICFHN [phage isolate NGSCWYDFGWETEICFHN]	binds
NSECGCPNMLHKEFCARH [phage isolate NSECGCPNMLHKEFCARH]	binds
PGHCEYIWIDEQPWCVRL [phage isolate PGHCEYIWIDEQPWCVRL]	binds
DSWCELEHQSGIWRCDFW [phage isolate DSWCELEHQSGIWRCDFW]	binds

Target: T1, human KDR-Fc fusion (R&D Systems …)
Test: as above
Remark: another data set of the same source

Binder	binding result
ARMGDDWEEAPPHEWGWADG [phage isolate ARMGDDWEEAPPHEWGWADG]	binds
PVTDWTPHHPKAPDVWLFYT [phage isolate PVTDWTPHHPKAPDVWLFYT]	binds
GDYVYWEIIELTGATDHTPP [phage isolate GDYVYWEIIELTGATDHTPP]	binds
WLYDYWDRQQKSEEFKFWSQ [phage isolate WLYDYWDRQQKSEEFKFWSQ]	binds
KKEDAQQWYWTDYVPSYLYR [phage isolate KKEDAQQWYWTDYVPSYLYR]	binds
AFPRFGGDDYWIQQYLRYTD [phage isolate AFPRFGGDDYWIQQYLRYTD]	binds
AFPRFGGDDYWIQQYLRYTF [phage isolate AFPRFGGDDYWIQQYLRYTF]	binds
QVQYQFFLGTPRYEQWDLDK [phage isolate QVQYQFFLGTPRYEQWDLDK]	binds
QVQYQFILGTPRYEQWDPDK [phage isolate QVQYQFILGTPRYEQWDPDK]	binds
RGDYQEQYWHQQLVEQLKLL [phage isolate RGDYQEQYWHQQLVEQLKLL]	binds
PSNSWAAVWEDDMQRLMRQH [phage isolate PSNSWAAVWEDDMQRLMRQH]	binds
FDVVNWGDGIWYAYPS [phage isolate FDVVNWGDGIWYAYPS]	binds
DWYWREWMPMHAQFLADDW [phage isolate DWYWREWMPMHAQFLADDW]	binds
AFEIEYWDSVRNKIWQHFPD [phage isolate AFEIEYWDSVRNKIWQHFPD]	binds
DWYWQRERDKLREHYDDAFW [phage isolate DWYWQRERDKLREHYDDAFW]	binds
DWYYDEILSMADQLRHAFLS [phage isolate DWYYDEILSMADQLRHAFLS]	binds
ISPWREMSGWGMPWITAVPH [phage isolate ISPWREMSGWGMPWITAVPH]	binds
AQMPPWWPLAVDALFDWFE [phage isolate AQMPPWWPLAVDALFDWFE]	binds
FPSQMWQQKVSHHFFQHKGY [phage isolate FPSQMWQQKVSHHFFQHKGY]	binds
DALEAPKRDWYYDWFLNHSP [phage isolate DALEAPKRDWYYDWFLNHSP]	binds
EPEGYAYWEVITLYHEEDGD [phage isolate EPEGYAYWEVITLYHEEDGD]	binds
WYYDWFHNQRKPPSDWIDNL [phage isolate WYYDWFHNQRKPPSDWIDNL]	binds
WVTKQQFIDTYGRKEWTILF [phage isolate WVTKQQFIDTYGRKEWTILF]	binds
RSWYLGPPYYEEWDPIPN [phage isolate RSWYLGPPYYEEWDPIPN]	binds
MPPGFSYWEQVVLHDDAQVL [phage isolate MPPGFSYWEQVVLHDDAQVL]	binds
EEQQALYPGCEPAEHWVYAG [phage isolate EEQQALYPGCEPAEHWVYAG]	binds
PRLGDDFEEAPPLEWWWAHF [phage isolate PRLGDDFEEAPPLEWWWAHF]	binds
GSDHVRVDNYWWNGMAWEIF [phage isolate GSDHVRVDNYWWNGMAWEIF]	binds
EWYWTEHVGMKHGFFV [phage isolate EWYWTEHVGMKHGFFV]	binds
EWDAQYWHDLRQQYMLDYIQ [phage isolate EWDAQYWHDLRQQYMLDYIQ]	binds
